The source of these data is patent publication US20180009892A1 (EUREKA THERAPEUTICS, published 2018).

Assay [1] has as its target T1, human ROR1 extracellular domain (ECD) protein (human, UniProt Q01973 30-406).
T1 construct: also called hROR1-ECD; human ROR1-ECD
The assay is described as follows: competitive phage ELISA: soluble ROR1 against ROR1-coated plate. The protocol: Purified phage antibodies were first diluted serially in PBST buffer, and tested for binding to a ROR1-coated plate. The dilution that gave 50-80% saturating signal was used in the solution binding assay in which phage were first incubated with increasing concentration of ROR1 for one to two hours, and then transferred to a ROR1-coated plate for 10-15 minutes to capture the unbound phage.
(In an ELISA, binding on a coated surface is turned into a signal by an enzyme label.)

Another assay addresses T2, human ROR2-ECD (human, UniProt Q01974 34-403).
T2 construct: extracellular domain; also called hROR2
The assay is described as follows: protein ELISA, phage.

Where a chain is given by its changes, count along the chain named.

T2 sequence (Q01974 34-403): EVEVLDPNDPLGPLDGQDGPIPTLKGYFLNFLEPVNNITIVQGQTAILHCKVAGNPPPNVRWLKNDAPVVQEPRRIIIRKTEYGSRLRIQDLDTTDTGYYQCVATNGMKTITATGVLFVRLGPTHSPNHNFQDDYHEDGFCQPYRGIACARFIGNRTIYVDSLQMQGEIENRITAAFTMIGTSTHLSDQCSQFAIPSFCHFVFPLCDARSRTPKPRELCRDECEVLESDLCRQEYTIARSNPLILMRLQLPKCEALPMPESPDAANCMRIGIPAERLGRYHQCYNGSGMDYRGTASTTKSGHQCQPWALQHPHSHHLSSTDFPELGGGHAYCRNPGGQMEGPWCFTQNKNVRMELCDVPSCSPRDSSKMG
T1 sequence (Q01973 30-406 limits assumed): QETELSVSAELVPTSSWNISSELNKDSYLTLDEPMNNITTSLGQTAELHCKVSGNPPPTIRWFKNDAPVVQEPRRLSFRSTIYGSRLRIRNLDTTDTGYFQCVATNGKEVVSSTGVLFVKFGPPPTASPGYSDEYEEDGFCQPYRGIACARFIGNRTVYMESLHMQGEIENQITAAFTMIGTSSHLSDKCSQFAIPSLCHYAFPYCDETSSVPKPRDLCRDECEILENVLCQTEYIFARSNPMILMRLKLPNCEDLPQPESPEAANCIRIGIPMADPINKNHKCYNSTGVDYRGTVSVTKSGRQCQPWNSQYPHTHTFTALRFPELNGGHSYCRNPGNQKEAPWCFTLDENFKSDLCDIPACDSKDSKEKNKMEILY

B1: P601-87 (scFv, V domains shown)
VH: QVQLQESGPGLVKSSETLSLTCTVSGGSMNNYYWSWIRQPAGKGLEWMGRIYSSGSTNYNPALKSRVTMSVDTSKNQFSLNLSSVTAADTAIYYCARASWSGTYWALFDYWGQGTLVTVSS
VL: ETTLTQSPAFMSATPGDKVNISCKASQDIDDDLNWYQQKPGEAPILIIQEATTLVPGIPPRFSGSGFGTDFTLTINSMQSEDVAYYFCLQHDNFPPTFGQGTKVEIK
In the case of B1, the half-maximal inhibitory concentration (IC50) – broadly, the concentration that gives 50% inhibition – in assay [1] amounted to 3.86 nM. Further, the binding result with human ROR2-ECD is recorded as “no binding”.

B2: P601-86 (scFv, V domains shown)
VH: QVTLKESGPTLLKPTQTLTLTCTFSGFSLSTRGVGVGWIRQPPGQALEWLTLIYWDDDKRYSPSLKSRLTITKDTSKNQVVLTMTNMESVDTATYYCAQQTMTGAFDIWGQGTTVTVSS
VL: DIQMTQSPSSVSASVGDRVTITCRASQGISTLLAWYQQKPGKAPKLLISSASSLQSGVPARFSGSGSGTDFTLTISSLQPEDFATYYCQQSYRAPTFGQGTKVEIKR
Regarding B2, in assay [1], the half-inhibitory concentration (IC50) amounted to 1.84 nM. In addition, the binding result with human ROR2-ECD is “no binding”.

B3: P601-40 (scFv, V domains shown)
VH: QVQLQQSGAEVKKPGASVKVSCKASGYTSTNYGISWVRQAPGQGLEWMGWISTYNGNTNYAQKLQGRVTMTTDTSTSTAYMELRSLRSDDTAVYYCARDYYSDSSGYWDDAFDIWGQGTMVTVSS
VL: DIQLTQSPSSLSASVGDRVTITCRASQNINNYLNWYQQKPGKAPKLLLYAASSLQSGVPSRFSGSGSGTEFTLTISSLHPEDFATYYCQQSYNTPFTFGPGTKVDIKR
In the case of B3, in assay [1], the IC50 was 0.2 nM. Besides, in the assay with human ROR2-ECD, the binding result was “no binding”.

B4: P601-2 (scFv, V domains shown)
VH: QVTLKESGPTLVKPTQTLTLTCTFSGFSLSSFGVAVGWFRQPPGKALEWLGLIYWDDDKRYSPSLKTRLTITKDTSKNQVVLTMTNMDPVDTATYYCAHKGGIATTGSPNWFDPWGQGTLVTVSS
VL: not shown
Turning to B4, the binding result in the assay with human ROR2-ECD is given as “no binding”.

B5: P601-66 (scFv, V domains shown)
VH: QVQLVQSGAEVKEPGASVKVSCKASGYTFRNSGITWVRQAPGQGLEWMGWINPNSGGAMYVDNFQGRATMTRDTSINTAYMELRSLSSDDTAVYYCARGMADLIDVFDIWGQGTLVTVSS
VL: TQPALTQPASVSGSPGQSITISCTGTSSDFGDYDYVSWYQQHPGKAPKLMIYDVSDRPSGVSNRFSGSKSGNTASLTISGLQAEDEADYFCSSFTTSSTLVFGGGTKLTVL
In assay [1], B5 yielded a concentration for half-maximal inhibition (IC50) of 4.05 nM.

B6: P601-101 (scFv, V domains shown)
VH: EVQLVQSGNEVKRPGASVKVSCKASGHSFSTYGFSWVRQAPGQGLEWMGWISTYNGNTNYAQKLQGRVTMTTDTSTSTAYMELRSLRSDDTAVYYCARDYYSDSSGYWDDAFDIWGQGTLVTVSS
VL: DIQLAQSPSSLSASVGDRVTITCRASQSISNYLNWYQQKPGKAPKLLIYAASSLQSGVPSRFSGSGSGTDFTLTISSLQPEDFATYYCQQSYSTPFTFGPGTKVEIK
The molecule B6 yielded a half-maximal inhibitory concentration (IC50) in assay [1] of 1.5 nM. Further, in the assay with human ROR2-ECD, the binding result is listed as “no binding”.

B7: P601-81 (scFv, V domains shown)
VH: EVQLVESGGGVVRPGGSLRLSCATSGFNFDNYGLSWVRQGPGKGLEWMGFIYKSVNTNYSPSLKSRLTISMDTSKNQFSLNLASVTTADTAIYYCARGKVETSVVDYWGQGTLVTVSS
VL: NFMLTQPRSVSESPGKTVTISCTGNGGRVANNYVQWYQQRPGSAPTTVIYEDNQRPSGVPARFSGSIDSSSNSASLTISGLKTDDEADYYCQSYDISNQRVFGGGTKLTVL
Molecule B7 came in with a half-maximal inhibitory concentration (IC50) in assay [1] of 2.76 nM. For the same molecule, in the assay with human ROR2-ECD, the binding result was “no binding”.

B8: P601-3 (scFv, V domains shown)
VH: QVTLKESGPTLVKPTQTLTLTCTFSGFSLNSFGVAVGWFRQPPGKALEWLGLIYWDDDRRYFPSLEGRLSITKDASDNNVVLTMMNVDPADTATYYCARTSPMVQGIANYYAMDVWGQGTTVTVSS
VL: not shown
For the molecule B8, the binding result in the assay with human ROR2-ECD is recorded as “no binding”.

B9: P601-137 (scFv, V domains shown)
VH: QVQLQQSGAEVKKPGASVKVSCKASGYTFSRYYIHWVRQAPGQGLEWMGIINTDGGTTTYAQKFQGRLTMTRDTSTSTVYMELSSLRSDDTAVYYCARDYGTIDARRFDYWGQGTLVTVSS
VL: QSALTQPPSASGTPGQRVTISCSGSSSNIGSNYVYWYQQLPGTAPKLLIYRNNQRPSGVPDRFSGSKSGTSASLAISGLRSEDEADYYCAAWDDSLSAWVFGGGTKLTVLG
B9 had an IC50 in assay [1] of 1.82 nM. In the assay with human ROR2-ECD, the binding result was “no binding”.

B10: P601-136 (scFv, V domains shown)
VH: B9 VH with Q5V, I50L, T53P, D54G, T57S, T59N, L68V, S77N, M81L, Y110F
VL: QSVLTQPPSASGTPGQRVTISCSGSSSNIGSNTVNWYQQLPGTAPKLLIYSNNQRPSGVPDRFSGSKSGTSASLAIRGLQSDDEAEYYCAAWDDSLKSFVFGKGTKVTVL
In assay [1], B10 had an IC50 of 3.02 nM. For the same molecule, the binding result in the assay with human ROR2-ECD is listed as “no binding”.

B11: P601-112 (scFv, V domains shown)
VH: EVQLVQSGGDLVQPGGSLRLSCAASGFTFSSYSMNWVRQAPGKGLEWVSSISSSSSYIYYADSVKGRFTISRDNAKNSLYLQMNSLRAEDTAVYYCARGLGGWTHDAFDIWGQGTTVTVSS
VL: QSALTQPASVSGSPGQSITISCTGTSSDVGGYNYVSWYQQHPGKAPKLMIYDVSKRPSGVSNRFSGSKSGNTASLTISGLQAEDEADYYCSSYTGRSTVFGGGTKLTVL
In assay [1], B11 gave a half-maximal inhibitory concentration (IC50) of 2.89 nM. Moreover, in the assay with human ROR2-ECD, the binding result is listed as “no binding”.

B12: P601-109 (scFv, V domains shown)
VH: B11 VH with E1Q, V2M
VL: QSALTQPASVSGSPGQSITISCTGTSSDVGGYNYVSWYQQHPGKAPKLLIYEVSQRPSGVPDRFSGSKSGNTASLTVSGLQAEDEADYYCSSYAGDRDVFGTGTQLTVLS
Turning to B12, the half-maximal inhibitory concentration (IC50) in assay [1] is 0.22 nM. Moreover, in the assay with human ROR2-ECD, the binding result is reported as “no binding”.

B13: P601-120 (scFv, V domains shown)
VH: B11 VH
VL: QSALTQPASVSGSPGQSITISCTGTSSDVGGYNYVSWYQQHPGKAPKLMIYDVSNRPSGVSNRFSGSKSGNTASLTISGLQAEDEADYYCSSYTSSSTRVFGGGTKLTVL
The molecule B13 showed an IC50 in assay [1] of 1.92 nM. Moreover, in the assay with human ROR2-ECD, the binding result is “no binding”.

B14: P601-110 (scFv, V domains shown)
VH: B11 VH with E1Q
VL: QSALTQPASVSGSPGQSITLSCTGTSSDVGGYNYVSWYQQHPGNGPKLIIYDVTKRPSGVSNRFSGSKSGNTAYLTISGLQAEDEADYYCASYTRSTTLVFGGGTKLTVL
B14: in assay [1], the IC50 worked out at 4.57 nM. Moreover, the binding result with human ROR2-ECD is recorded as “no binding”.

B15: P601-103 (scFv, V domains shown)
VH: B11 VH
VL: B13 VL with A3V, S26T, N55K, R99D, G103T
In turn, B15 returned a half-inhibitory concentration (IC50) in assay [1] of 8.72 nM. The binding result with human ROR2-ECD was “no binding”.

B16: P601-6 (scFv, V domains shown)
VH: EVQLVESGGGLVKPGGSLKLSCAASGFTFSDYYMGWVRQAPGKGLKWLSYISDRAHTIYDTHSVKGRFTISRDDAKSSLYLRMNNLRVEDTAVYYCARAVGAGEGFDYWCQGTLVTVSS
VL: DIQMTQSPSSLSASVGDRVTITCQASQDIRNYLNWYQQKPGKAPKLLIYAASNLETGVPSRFSGSGSGTDFTFTISSLQPEDIATYYCQQDDNLPLTFGGGTKLEIK
Regarding B16, the half-maximal inhibitory concentration (IC50) in assay [1] amounted to 2.12 nM.

B17: P601-5 (scFv, V domains shown)
VH: B16 VH with K19R, H62D, C110G
VL: not shown
For the molecule B17, the binding result with human ROR2-ECD is “no binding”.

B18: P601-149 (scFv, V domains shown, not shown: large carriers; small tags and cut ends)
VH: B16 VH with V2A, K19R, H62D, C110G
VL: B16 VL with M4L, I29V, K45N, A50D, S52T, T56S, I83F, D91Y, T97S, L104V
As to B18, in assay [1], the half-inhibitory concentration (IC50) came to 2.76 nM.

B19: P601-13 (scFv, V domains shown)
VH: EVQLVQSGAEVKKPGSSVKVSCKASGGTFSTFAINWVRQAPGQGLEWMGGVIPVSGTEDYSQKFQGRLSLTADESTGTAYMELSSLRSDDTAVYYCARDRSGRDWDYFDYWGQGTLVTVSS
VL: DIVMTQSPSSLSASVGDRVTITCQASQDISNYLNWYQQKPGKAPKLLIYDASNLETGVPSRFSGSGSGTDFIFTISSLQPEDIATYYCQQFDNLPYTFGQGTKVEIKR
Regarding B19, the concentration for half-maximal inhibition (IC50) in assay [1] amounted to 1.21 nM. Further, the binding result with human ROR2-ECD is “no binding”.

B20: P601-153 (scFv, V domains shown, not shown: large carriers; small tags and cut ends)
VH: QMQLVQSGAEVKKPGASVKVSCKASGYTFTSYYMHWVRQAPGQGLEWMGIINPSGGSTSYAQKFQGRVTMTRDTSTSTVYMELSSLRSEDTAVYYCARGGYTGWSPSDPWGQGTLVTVSS
VL: B13 VL with L48F, N55K, S91G, Y93F, S97I, R99Y, G103T, L107V
Regarding B20, the half-maximal inhibitory concentration (IC50) in assay [1] is 1.53 nM.

B21: P601-65 (scFv, V domains shown)
VH: QVQLQQSGPGLVKPSQTLSLTCAISGDSVSSNSATWNWIRQSPSRGLEWLGRTYYRSKWYNDYAVSVKSRIIINPDTSKNQFSLQLNSVTPEDTAVYYCARGVRAFDIWGQGTTVTVSS
VL: QSVLTQPPSVSGTPGQRVTIFCSGGSNNIGRSSVYWYRQAAGTAPKLLIYKTDQRPSGVPDRFAASKSGASASLAISGLRSEDEADYHCATWDDSLSAVVFGGGTKLTVL
For the molecule B21, in assay [1], the IC50 came to 4.23 nM. The binding result with human ROR2-ECD is given as “no binding”.

B22: P601-130 (scFv, V domains shown)
VH: EVQLVETGGGLVKPGGSLRLSCEASGFSLSSYSMNWVRQAPGKGLEWVSSISSSSTHIYYADSLKGRFTISRDNAKNSLFLQMDNLRAEDTAVYYCARATIGFDYWGQGTLVTVSS
VL: QSVLTQPPSVSGAPGQRVTISCTGSSSNIGAGYDVHWYQQLPGTAPKLLIYGNSNRPSGVPDRFSGSKSGTSASLAITGLQAEDEADYYCQSYDSSLSGYVFGTGTKLTVL
B22 gave an IC50 in assay [1] of 3.08 nM. Moreover, the binding result in the assay with human ROR2-ECD was “no binding”.
